Assay results published in IntAct's records for PubMed 18775314.

B1: Arf-GAP domain and FG repeat-containing protein 1 (Homo sapiens), P52594 (parent)
chain: MAASAKRKQEEKHLKMLRDMTGLPHNRKCFDCDQRGPTYVNMTVGSFVCTSCSGSLRGLNPPHRVKSISMTTFTQQEIEFLQKHGNEVCKQIWLGLFDDRSSAIPDFRDPQKVKEFLQEKYEKKRWYVPPEQAKVVASVHASISGSSASSTSSTPEVKPLKSLLGDSAPTLHLNKGTPSQSPVVGRSQGQQQEKKQFDLLSDLGSDIFAAPAPQSTATANFANFAHFNSHAAQNSANADFANFDAFGQSSGSSNFGGFPTASHSPFQPQTTGGSAASVNANFAHFDNFPKSSSADFGTFNTSQSHQTASAVSKVSTNKAGLQTADKYAALANLDNIFSAGQGGDQGSGFGTTGKAPVGSVVSVPSQSSASSDKYAALAELDSVFSSAATSSNAYTSTSNASSNVFGTVPVVASAQTQPASSSVPAPFGATPSTNPFVAAAGPSVASSTNPFQTNARGATAATFGTASMSMPTGFGTPAPYSLPTSFSGSFQQPAFPAQAAFPQQTAFSQQPNGAGFAAFGQTKPVVTPFGQVAAAGVSSNPFMTGAPTGQFPTGSSSTNPFL
B2: Vesicle-associated membrane protein 7 (Homo sapiens), P51809 (parent)
chain: MAILFAVVARGTTILAKHAWCGGNFLEVTEQILAKIPSENNKLTYSHGNYLFHYICQDRIVYLCITDDDFERSRAFNFLNEIKKRFQTTYGSRAQTALPYAMNSEFSSVLAAQLKHHSENKGLDKVMETQAQVDELKGIMVRNIDLVAQRGERLELLIDKTENLVDSSVTFKTTSRNLARAMCMKNLKLTIIIIIVSIVFIYIIVSPLCGGFTWPSCVKK
partner: B1 chain

Variants of: B1
Settings: with vamp7_human VAMP7, P51809

effect of a mutation on the interaction | Variant
decreasing interaction | L160S;L163S
decreasing interaction | L163S;L164S
decreasing interaction | L171S;L173S

Variants of: B1
Settings: with vamp7_human VAMP7, P51809
Remark: another data set of the same source

effect of a mutation on the interaction | Variant
decreasing interaction | L163S;L164S

Variants of: B2
Settings: with agfg1_human AGFG1, P52594

effect of a mutation on the interaction | Variant
decreasing interaction | L43S;Y45S

Variants of: B2
Settings: with agfg1_human AGFG1, P52594
Remark: another data set of the same source

effect of a mutation on the interaction | Variant
decreasing interaction | L43S;Y45S
